Experimental findings from patent US20140243255A1 are described below.

For the assay, the target named is Mtb ClpP1P2 protease complex (one heptameric ClpP1 ring and one heptameric ClpP2 ring) (Mycobacterium tuberculosis) (UniProt P0A527).

Take Z-Leu-Leu (peptide): the dissociation constant Kd came out at 2200 µM. Substance Z-Leu-leucinal (peptide) gave an equilibrium dissociation constant (Kd) of 240 µM.
